# Data reported in the RNAGym collection of RNA variant scans (doi:10.7554/elife.80360).
# B1: CPEB3 Ribozyme (parent)
# chain: GGGGGCCACAGCAGAAGCGUUCACGUCGCGGCCCCUGUCAGAUUCUGGUGAAUCUGCGAAUUCUGCUGU
# Variants of: B1
# Test: self-cleavage, relative activity (ratio to wild type); higher = more cleavage; co-transcriptional
row,Variant,self-cleavage
1,C32U U62G,0.864
2,C33U U55A,0.965
3,C33G G56C,0.326
4,C33G A42U,0.556
5,C33G U49A,0.748
6,C33G U49C,0.645
7,C33G U69A,0.82
8,C33G U69G,0.899
9,C34A A59G,0.609
10,C34A A59U,0.436
11,C32U U36G,0.297
12,C33G G58C,0.703
13,C33G G58U,0.821
14,C33U G37C,0.242
15,C33U G37A,0.265
16,C33A G48U,0.929
17,C33A G48C,0.898
18,C32G U64G,0.253
19,C32G U64A,0.235
20,C32G G65C,0.224
21,C32G G65A,0.288
22,C33A U67A,0.977
23,C33A U67G,1.01
24,C33A G41U,0.562

row,Variant,self-cleavage
1,C33A G41A,0.349
2,C32U C39U,0.937
3,C33G C45G,0.537
4,C33G C45A,0.47
5,C33G C45U,0.641
6,C33U C45A,0.987
7,C33U C45G,0.98
8,C33U U38C,0.899
9,C33U U38G,0.215
10,C32U U64G,1.01
11,C32U G37U,0.292
12,C33U A51C,0.948
13,C33U A51U,0.963
14,C33U A51G,0.922
15,C32U U49A,1.01
16,C33A C54G,0.301
17,C33A C54U,0.723
18,C33A C54A,0.326
19,C32G U55C,0.258
20,C32G U55G,0.218
21,C33U G41C,0.728
22,C33U G41U,0.821
23,C33U U44G,0.945
24,C33U U53G,0.727

row,Variant,self-cleavage
1,C33U U53A,0.932
2,C33U U53C,0.861
3,C32U A42U,0.933
4,C32U A42C,0.961
5,C32U A42G,0.914
6,C32U C45G,0.975
7,C32U C45A,0.983
8,C32U C45U,1.01
9,C34A C54U,0.69
10,C32G U67C,0.536
11,C32G U67G,0.584
12,C32G U67A,0.525
13,C33A G68U,0.904
14,C33A G68A,0.951
15,C32U G56U,0.971
16,C32U G56A,0.94
17,C32U C34A,0.541
18,C34A C57G,0.285
19,C34A C57U,0.285
20,C34A C57A,0.255
21,C33A A40G,0.748
22,C32U U53G,0.967
23,C32U U53A,0.982
24,C32U,0.993

row,Variant,self-cleavage
1,C34A A42C,0.46
2,C33U U61A,0.905
3,C33U U61G,0.82
4,C33U U61C,0.913
5,C34A C63U,0.817
6,C34A C63A,0.495
7,C34A C63G,0.411
8,C32G G50U,0.503
9,C32G G50C,0.299
10,C33U C54U,0.949
11,C33G C63U,0.632
12,C33G C63G,0.384
13,C33U G56A,0.949
14,C33U G56C,0.849
15,C33U G56U,0.963
16,C33A C34G,0.229
17,C33A C34A,0.331
18,C34A A51G,0.469
19,C32G U46G,0.522
20,C32G U46A,0.492
21,C33U C57U,0.345
22,C33G U46C,0.783
23,C33G U46G,0.604
24,C33G U62A,0.391

row,Variant,self-cleavage
1,C33G U62G,0.374
2,C33A U53A,0.392
3,C33A U53C,0.48
4,C33A U53G,0.346
5,C32G U36G,0.191
6,C32U A59U,0.785
7,C32U A59C,0.687
8,C32U A59G,0.954
9,C32U G58A,0.983
10,C32G U53A,0.266
11,C33A U49C,0.926
12,C33A U49A,0.965
13,C33A U49G,0.981
14,C34A A52G,0.497
15,C34A A52C,0.597
16,C33A G47A,0.925
17,C33A G47C,0.946
18,C33G C39U,0.337
19,C33G C39G,0.513
20,C33G C39A,0.387
21,C33G G68A,0.922
22,C33A G65C,0.529
23,C33U U64A,0.919
24,C33U U64C,0.92

row,Variant,self-cleavage
1,C33U U64G,0.941
2,C32U C35G,0.349
3,C33G C66U,0.649
4,C33G C66A,0.526
5,C33A U43G,0.361
6,C33A U43C,0.461
7,C33G G65C,0.424
8,C33G G65A,0.511
9,C33G G65U,0.376
10,C33A G58U,0.881
11,C33A G58C,0.837
12,C33A A59C,0.322
13,C33U U46G,0.979
14,C33U U46C,0.977
15,C33U U46A,0.98
16,C33U U49G,0.996
17,C33U U49A,0.97
18,C33U U49C,1.02
19,C32U G47U,1.01
20,C33A A51U,0.46
21,C33A A51G,0.7
22,C33A A51C,0.366
23,C33G C54U,0.727
24,C33G C54G,0.338

row,Variant,self-cleavage
1,C33A U36G,0.256
2,C33A U36A,0.157
3,C33A U36C,0.785
4,C32U U46C,1
5,C32U U46G,0.951
6,C32U U46A,1
7,C33G A59C,0.326
8,C32G U44A,0.385
9,C32G U44G,0.426
10,C33U G47C,0.969
11,C33U G47A,0.972
12,C33U G47U,0.985
13,C33A U55A,0.486
14,C33A U55C,0.438
15,C33A U55G,0.319
16,C33G U36A,0.13
17,C33G U36G,0.25
18,C33A U69C,1.04
19,C33A U69G,0.988
20,C32U U38C,0.955
21,C33A C63G,0.513
22,C32G G58A,0.44
23,C33G U44C,0.576
